Measurements from patent US20110165066A1 (AbbVie / Abbott, published 2011).
Changes are numbered by the printed parent chain. Blank lines part the entries; values can stand above or below the binder they belong to.

What was measured:
[1] = biological target: T1, rhesus IL-13 (rhesus, UniProt Q864V6 21-132, limits assumed); test: cell-based or functional assay
[2] = biological target: T2, cynomolgus IL-13 (cynomolgus, UniProt Q0PW92 21-132); test: cell-based or functional assay
[3] = biological target: T3, human IL-13 wild type (human, UniProt P35225 35-146); test: cell-based or functional assay
T3 sequence (P35225 other isoform, or with tags, fused parts or gaps limits assumed): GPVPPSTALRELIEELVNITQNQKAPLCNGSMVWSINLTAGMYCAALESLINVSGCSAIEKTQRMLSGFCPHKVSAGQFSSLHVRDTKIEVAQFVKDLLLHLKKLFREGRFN

[4] = biological target: T1, rhesus IL-13; test: SPR (Biacore)
Description: (§1) The BIACORE assay (Biacore, Inc, Piscataway, N.J.) determines the affinity of antibodies with kinetic measurements of on-, off-rate constants. […] All chemicals were obtained from Biacore® AB (Uppsala, Sweden) or otherwise from a different source as described in the text. Approximately 5000 RU of goat anti-mouse IgG, (Fcγ), fragment specific polyclonal antibody (Pierce Biotechnology Inc, Rockford, Ill.) diluted in 10 mM sodium acetate (pH 4.5) was directly immobilized across a CM5 research grade biosensor chip using a standard amine coupling kit according to manufacturer's instructions and procedures at 25 μg/ml. Unreacted moieties on the biosensor surface were blocked with ethanolamine. Modified carboxymethyl dextran surface in flowcell 2 and 4 was used as a reaction surface. Unmodified carboxymethyl dextran without goat anti-mouse IgG in flow cell 1 and 3 was used as the reference surface. For kinetic analysis, rate equations derived from the 1:1 Langmuir binding model were fitted simultaneously to association and dissociation phases of all eight injections (using global fit analysis) with the use of Biaevaluation 4.0.1 software. Purified antibodies were diluted in HEPES-buffered saline for capture across goat anti-mouse IgG specific reaction surfaces. Mouse antibodies to be captured as a ligand (25 μg/ml) were injected over reaction matrices at a flow rate of 5 μl/min. The association and dissociation rate constants, kₒₙ (unit M⁻¹s⁻¹) and koff (unit s⁻¹) were determined under a continuous flow rate of 25 μl/min Rate constants were derived by making kinetic binding measurements at ten different antigen concentrations ranging from 10-200 nM. […] Binding is recorded as a function of time and kinetic rate constants are calculated.

[5] = biological target: T2, cynomolgus IL-13; test: SPR (Biacore)
Description: as §1

[6] = biological target: T3, human IL-13 wild type; test: SPR (Biacore)
Description: as §1

[7] = biological target: T4, human IL-13 variant (R130Q) (human, UniProt P35225 35-146); test: not stated in the sentence (Biacore elsewhere)
T4 construct: called R110Q in the assay descriptions (mature numbering); also called h IL-13v; hIL-13v
T4 sequence (P35225 35-146 limits assumed, stated change not applied): as the sequence (P35225 other isoform, or with tags, fused parts or gaps limits assumed) above, with R110Q counted along it

[8] = biological target: T2, cynomolgus IL-13; test: not stated in the sentence (Biacore elsewhere)
[9] = biological target: T4, human IL-13 variant (R130Q); test: cell-based or functional assay
[10] = biological target: T2, cynomolgus IL-13; test: cell-based or functional assay; remark: listed apart in the source
[11] = biological target: T3, human IL-13 wild type; test: cell-based or functional assay; remark: listed apart in the source
[12] = biological target: T5, mouse IL-13 (mouse, UniProt P20109 26-131, limits assumed); test: indirect ELISA, captured mAb, biotinylated mouse IL-13
T5 construct: also called mIL-13; murine IL-13
T5 sequence (looked up): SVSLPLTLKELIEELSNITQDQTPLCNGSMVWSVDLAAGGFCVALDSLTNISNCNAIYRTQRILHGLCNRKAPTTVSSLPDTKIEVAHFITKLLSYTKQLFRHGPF
Description: Murine anti-human IL-13 mAbs were prepared at various concentrations ranging from 0.1 to 100 ng/ml in PBS containing 0.1% BSA; 50 ul of each antibody dilution was added to the coated ELISA plate and incubated for 1 hour at room temperature. Wells were washed 3 times with PBS containing 0.05% Tween-20. […] Wells were washed 3 times with PBS containing 0.05% Tween-20. Streptavidin HRP (Pierce #21126, Rockland, Ill.) was diluted 1:20000 in PBS containing 0.1% BSA; […] was added and the plates incubated for 1 hour at room temperature. Plates were washed 3 times with PBS containing 0.05% Tween-20. Fifty microliters of TMB solution (Sigma # T0440, St. Louis, Mo.) was added to each well and incubated for 10 minutes at room temperature. The reaction was stopped by addition of 1N sulphuric acid. Plates were read spectrophotmetrically at a wavelength of 450 nm.

[13] = biological target: T3, human IL-13 wild type; test: blocking of IL-13 binding to IL-13Rα2: cell surface RBA (125I-IL-13, transfected COS cells) and receptor binding ELISA (IL-13Rα2/Fc); native IL-13 in solution; blocking of binding to IL-13Rα2, cell surface RBA and RB ELISA; upper end of range
Description: (§2) The plates were washed again 5 times with 300 ul 0.1% PBST, followed by addition of TMB substrate reagent (100 ul/well, Pharmingen); developed for 5 min, and stopped by adding 50 ul of 2M H2SO4 (VWR). ODs at 450 nm were determined by spectrophotometry.
(§3) Additionally, the receptor blocking properties of the mAbs were also assessed by receptor binding assay using IL-13Rα2-transfected COS cells. Recombinant human IL-13 was labeled with ¹²⁵I (Amersham, Arlington Heights, Ill.), using IODO-GEN reagent (Pierce, Rockford, Ill.) as previously described (Obiri N I et al., (1995) J Biol Chem. 270:8797-8804). […] For binding experiments, COS cells were transiently transfected with human IL-13Rα2 by Lipofectamine 2000 (Invitrogen), and incubated for 48 hr. Transfected COS cells (5×10^5 cells in 100 μL binding buffer: RPMI 1640 containing 0.2% human serum albumin and 10 mmol HEPES) were incubated with 1.0 nM ¹²⁵I-IL-13 with or without 1 uM unlabeled IL-13 at 4° C. for 2 hours. Cell-bound ¹²⁵I-IL-13 was separated from unbound ¹²⁵I-IL-13 by centrifugation through a phthalate oil gradient, and radioactivity was determined with a gamma counter (Wallac, Gaithersburg, Md.).

[14] = biological target: T3, human IL-13 wild type; test: blocking of IL-13 binding to IL-13Rα2: cell surface RBA (125I-IL-13, transfected COS cells) and receptor binding ELISA (IL-13Rα2/Fc); native IL-13 in solution; blocking of binding to IL-13Rα2, cell surface RBA and RB ELISA; lower end of range
Description: as §2, §3

[15] = biological target: T4, human IL-13 variant (R130Q); test: SPR (Biacore), mAb captured, IL-13 as analyte
Description: as §1

[16] = biological target: T3, human IL-13 wild type; test: SPR (Biacore), mAb captured, IL-13 as analyte; native recombinant human wild-type IL-13, Biacore
Description: as §1

[17] = biological target: T5, mouse IL-13; test: cell-based or functional assay
[18] = biological target: T5, mouse IL-13; test: BIACORE against recombinant mouse IL-13

T2 sequence (Q0PW92 entry or part of it): as the sequence (P35225 other isoform, or with tags, fused parts or gaps limits assumed) above, with G1S, R10K, M42V, S67N, H83R, L100V, R110Q counted along it
T1 sequence (Q864V6 21-132 limits assumed): as the sequence (P35225 other isoform, or with tags, fused parts or gaps limits assumed) above, with G1S, P5R, R10K, M42V, S67N, H83R, L100V counted along it

B1: 13C5.5L2EL3F (antibody, V domains shown)
VH: EVTLRESGPGLVKPTQTLTLTCTLYGFSLSTSDMGVDWIRQPPGKGLEWLAHIWWDDVKRYNPALKSRLTISKDTSKNQVVLKLTSVDPVDTATYYCARTVSSGYIYYAMDYWGQGTLVTVSS
VL: DIQMTQSPSSLSASVGDRVTISCRASQDIRNYLNWYQQKPGKAPKLLIFYTSMKPRGVPSRFSGSGSGTDYTLTISSLQPEDIATYYCQQGLTPPLTFGGGTKVEIK
notes: constant regions not restated for this variant
Potency (IC50), A-549 bioassay [1]: 260 pM
Potency (IC50), A-549 bioassay [2]: 480 pM
Potency (IC50), A-549 bioassay [3]: 120 pM
Kd [4]: 130 pM
Kd [5]: 320 pM
Kd [6]: 250 pM

B2: 13C5.5L2E (antibody, V domains shown)
VH: B1 VH
VL: B1 VL with L92N, P94L
notes: as for B1
Potency (IC50), A-549 bioassay [1]: 400 pM
Potency (IC50), A-549 bioassay [2]: 1200 pM
Potency (IC50), A-549 bioassay [3]: 180 pM
Kd [4]: 290 pM
Kd [5]: 520 pM
Kd [6]: 120 pM

B4: 13C5 (antibody, V domains shown)
VH: QVTLKESGPGILQPSQTLSLTCSFSGFSLSTSDMGVDWIRQPSGKGLEWLAHIWWDDVKRYNPALKSRLTISKDTSSSQVFLMLASVDTADTATYYCARTVSSGYIYYAMDYWGQGTSVTVSS
VL: DIQMTQTASSLSASLGDRVTISCRASQDIRNYLNWYQRKPDGTVKLLIFYTSKLHSGVPSRFSGSGSGTDYSLTIRNLEQEDIATYFCQQGNTLPLTFGGGTKLEIKR
notes: also called murine 13C5
Kd [7]: 50 pM
Kd [8]: 1800 pM
Average IC50, IL-13-induced TARC production by A-549 cells [9]: 170 pM
Average IC50, IL-13-induced TARC production by A-549 cells [10]: 5000 pM
Average IC50, IL-13-induced TARC production by A-549 cells [11]: 190 pM
binding result [12]: no binding (tested: 0.1 to 100 ng/ml)
IC50 [13]: 1000 to 3000 pM
IC50 [14]: 1000 to 3000 pM
Kd [15]: 75.9 pM
koff [15]: 4.35e-05 s⁻¹
kon [15]: 574000 M⁻¹ s⁻¹
Kd [16]: 74.5 pM
koff [16]: 9.31e-05 s⁻¹
kon [16]: 1.25e+06 M⁻¹ s⁻¹

The next lines start with the values.

Potency (IC50), A-549 bioassay [1]: 140 pM
Potency (IC50), A-549 bioassay [2]: 460 pM
Potency (IC50), A-549 bioassay [3]: 150 pM
Kd [4]: 110 pM
Kd [5]: 190 pM
Kd [6]: 240 pM
B3: 13C5.5L3F (antibody, V domains shown)
VH: B1 VH
VL: B1 VL with M53K, K54L, P55H, R56S
notes: The heavy chain row is printed 'VH 13C5.5L2F'

IC50, A-549 bioassay against recombinant mouse IL-13 [17]: 343 pM
Kd [18]: 145 pM
B5: 51D9 (antibody, V domains shown)
VH: QIQLVQSGPELKKPGESVKISCKASGYTFTDYAMHWVKQAPGKGLKWMAWINTYTGKPTYADDFKGRFVFSLEASASTATLQISNLKNEDTATYFCARAGRTEGTHYYAMDAWGQGTSVTVSS
VL: DIVLTQSPVLAVSLGQRATISCRASQSVSISSSDLMHWYQQRPGHQPKLLIYRTSNLVSGIPARFSGSGSGTDFTLTIDPVQADDIAAYYCQQGRESPWTFGGGTKLELKR

IC50, A-549 bioassay against recombinant mouse IL-13 [17]: 49.1 pM
Kd [18]: 105 pM
B6: 48D3 (antibody, V domains shown)
VH: EVQLVESGGDLVQPGRSLKLSCAASGFTFSDYYMAWVRQAPTKGLEWVASISNDGISTYYRDSVKGRFTISREKAKSSLYLQMDSLRSEDTATYYCTTWNWEFGFFDYWGQGVMVTVSA
VL: DIVLTQSPALAVSLGQRATISCRASQSVTISRYNRMHWYQQRPGQQPKLLIYRSSYLASGIPARFSGSGSGTDFTLTIYPVQADDIATYYCQQNRESPWTFGGGTKLELNR
